This passage reports [4d] µg (Class.) results from patent publication EP0888374B1.

The target of the assay is Complement System Protein C1q (UniProt P02745). Description: cell-based or functional assay.
Chain of UniProt P02745 (P02745 23-245, chain 1 of 3): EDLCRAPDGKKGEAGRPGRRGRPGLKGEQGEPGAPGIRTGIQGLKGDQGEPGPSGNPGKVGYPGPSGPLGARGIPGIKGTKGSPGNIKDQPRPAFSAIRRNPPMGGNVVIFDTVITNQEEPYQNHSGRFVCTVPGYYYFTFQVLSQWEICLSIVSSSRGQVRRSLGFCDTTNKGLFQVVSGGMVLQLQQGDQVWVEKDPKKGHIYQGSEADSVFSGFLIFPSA
Chain of UniProt P02745 (P02746 28-253, chain 2 of 3, further chain): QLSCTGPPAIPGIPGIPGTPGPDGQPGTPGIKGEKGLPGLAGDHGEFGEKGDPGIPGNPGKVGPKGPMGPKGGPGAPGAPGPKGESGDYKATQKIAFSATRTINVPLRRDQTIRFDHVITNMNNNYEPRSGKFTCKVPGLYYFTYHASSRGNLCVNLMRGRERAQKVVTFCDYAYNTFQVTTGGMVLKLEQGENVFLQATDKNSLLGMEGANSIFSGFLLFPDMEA
Chain of UniProt P02745 (P02747 29-245, chain 3 of 3, further chain): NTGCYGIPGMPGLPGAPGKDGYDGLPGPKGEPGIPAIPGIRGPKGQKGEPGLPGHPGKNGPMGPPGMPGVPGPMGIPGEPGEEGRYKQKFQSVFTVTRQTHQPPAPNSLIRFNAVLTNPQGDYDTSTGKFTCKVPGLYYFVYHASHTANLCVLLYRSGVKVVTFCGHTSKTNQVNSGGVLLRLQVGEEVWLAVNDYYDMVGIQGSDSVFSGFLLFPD

For “BSA-anti-BSA Immune Complexes (from UniProt P02769 25-607)”, the [4d] µg (Class.) turned out to be 8 µg.
